# How the values were obtained:
# [1] = target: Strep-tagged glucose-6-phosphate dehydrogenase (G6PDH) from Synechocystis (Synechocystis sp. PCC 6803) (UniProt P73411); experiment: SEC-MALS
# [2] = target: Strep-tagged glucose-6-phosphate dehydrogenase (G6PDH) from Synechocystis (Synechocystis sp. PCC 6803) (UniProt P73411)
# Strep-tagged glucose-6-phosphate dehydrogenase (G6PDH) from Synechocystis (Synechocystis sp. PCC 6803), sequence (P73411 whole entry): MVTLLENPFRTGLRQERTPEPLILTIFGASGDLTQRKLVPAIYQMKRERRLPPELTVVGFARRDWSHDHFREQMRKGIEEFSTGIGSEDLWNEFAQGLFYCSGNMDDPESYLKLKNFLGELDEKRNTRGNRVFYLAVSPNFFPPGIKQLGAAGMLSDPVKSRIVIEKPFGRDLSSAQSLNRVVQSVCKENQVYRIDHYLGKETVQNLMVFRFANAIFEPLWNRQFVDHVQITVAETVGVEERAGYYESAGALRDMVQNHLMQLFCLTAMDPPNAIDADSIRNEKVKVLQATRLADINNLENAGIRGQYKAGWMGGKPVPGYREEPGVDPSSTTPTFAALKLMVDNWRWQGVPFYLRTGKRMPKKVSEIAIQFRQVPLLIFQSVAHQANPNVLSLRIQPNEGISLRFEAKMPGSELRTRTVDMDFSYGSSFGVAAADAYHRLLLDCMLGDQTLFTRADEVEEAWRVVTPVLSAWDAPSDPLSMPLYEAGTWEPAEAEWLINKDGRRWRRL
substance,measurement,setting,value
Strep-tagged oxidative pentose phosphate cycle protein (OpcA) from Synechocystis (natural protein),stoichiometry N (subunits of OpcA per G6PDH tetramer),[1],4
same,"G6PDH activity after pre-incubation of OpcA with DTTred, compared to the control",[2],30%
same,G6PDH activity after pre-incubation of OpcA with Synechocystis thioredoxin TxrA,[2],10%
same,G6PDH enzyme kinetics: substrate affinity with OpcA added,[2],6 fold

# Reference: doi:10.1101/2021.04.15.439997
